Target: T1, PRDX1 (peroxiredoxin 1), endogenous in TM3 cells (mouse (endogenous in TM3)), P35700
T1 chain: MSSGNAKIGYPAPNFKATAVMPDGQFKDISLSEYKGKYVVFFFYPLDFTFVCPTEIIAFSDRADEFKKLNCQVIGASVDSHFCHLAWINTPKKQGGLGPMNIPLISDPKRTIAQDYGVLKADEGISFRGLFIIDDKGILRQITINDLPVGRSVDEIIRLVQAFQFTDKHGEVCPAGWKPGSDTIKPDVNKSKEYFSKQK
Assay: SDS-PAGE under DTT-free conditions with western blot
Conditions: remark: other sources report otherwise

- stoichiometry N: 2
B1: PRDX1 (peroxiredoxin 1), endogenous in TM3 cells, P35700 1-199 (enzyme)
chain: T1 chain

From publication PMC12630831
